Positions count from the first letter of the chain named. One block for each molecule: values may come before it. No end group written: not given here.
Tests used:
[1] = tested on: E13 chick DRG neurons; assay: AP fusion protein binding to dissociated E13 chick DRG neurons
From the text: FIG. 1E. Binding of AP fused Amino-Nogo fragments to dissociated E13 chick DRG neurons. Conditioned media from HEK293T cells containing AP fusion protein as indicated were applied to dissociated E13 chick DRG neurons and bound AP was stained.
If these Amino-Nogo fragments are to play a role in regulating neurite outgrowth then they would be expected to bind to neuronal processes. Previously, we have shown that AP-Nogo-66 binds to NgR on DRG processes (Fournier, A. E., et al., Nature 409:341-346 (2001)).

[2] = target: T1, NgR (Homo sapiens, UniProt Q9BZR6); assay: AP fusion protein binding to NgR expressing COS-7 cells; details: AP fused Amino-Nogo fragments in conditioned media on NgR expressing COS-7 cells; 'No binding at' cells continue on the next line: AmNg A 150 nM; a.a. 1000-1018, a.a. 1005-1018, Amino of NgC 25 nM; a.a. 950-1004 50 nM; Amino of NgB 100 nM
T1 construct: expressed in transfected cells; host or cells: COS-7
T1 sequence (Q9BZR6 27-447): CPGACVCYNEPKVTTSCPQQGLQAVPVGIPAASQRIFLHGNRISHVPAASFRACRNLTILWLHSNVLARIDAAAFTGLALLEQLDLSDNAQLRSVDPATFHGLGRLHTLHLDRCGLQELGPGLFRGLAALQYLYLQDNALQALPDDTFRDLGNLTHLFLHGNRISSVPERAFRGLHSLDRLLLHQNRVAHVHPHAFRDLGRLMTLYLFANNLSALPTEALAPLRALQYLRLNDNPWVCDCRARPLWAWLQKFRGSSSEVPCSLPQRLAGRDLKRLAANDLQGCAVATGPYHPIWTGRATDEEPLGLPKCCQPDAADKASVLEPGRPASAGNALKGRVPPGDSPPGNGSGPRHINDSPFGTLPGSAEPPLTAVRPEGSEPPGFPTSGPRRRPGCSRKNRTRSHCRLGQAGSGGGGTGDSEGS
From the text: Several alkaline phosphatase (AP) fusion proteins containing various Nogo-A segments derived from regions between the amino terminus and the first hydrophobic segment were examined to identify the mechanism of Amino-Nogo-A action. To generate additional AP fusion proteins, human amino Nogo fragments were amplified and ligated to the pcAP6 vector digested with restriction enzymes EcoRI and XhoI as described (Fournier, A. E., et al., Nature 409:341-346 (2001)). Plasmids were then transfected into HEK293T cells and conditioned media were collected after 7 days. None of these fragments bind with high affinity to non-transfected COS-7 cells. […] This binding is saturable with a Kd indistinguishable from that for AP-Nogo-66 association with NgR (Table I). To better define the region responsible for Amino-Nogo interaction with NgR, a range of truncation mutants of Amino-Nogo were examined as AP fusion proteins. […] In fact, the NgR-interacting segment of Amino-Nogo is fully accounted for in the extreme carboxyl 24 amino acids (aa 995-1018, Amino-Nogo-A-24) (Table I and FIG. 1D). […] We named this domain (aa 995-1013) as Amino-Nogo-A-19.
Binding Kds for AP fused Amino-Nogo fragments were measured by applying conditioned media containing AP fusion protein to NgR expressing COS-7 cells. Bound AP was stained and measured.
It has been recognized that the Amino-Nogo-A protein inhibits non-neuronal cell spreading and axonal outgrowth when the protein is substrate bound (Chen, M. S., et al., Nature 403:434-439 (2000); Fournier, A. E., et al., Nature 409:341-346 (2001)). […] The later domain has been termed Δ20. To determine whether the NgR-interacting aa of Amino-Nogo-A described in Example 1 regulate cell spreading and axonal outgrowth, various fragments were expressed as GST fusion proteins and purified from E. coli. To generate GST fusion proteins, amino Nogo fragments were cloned in pGEX2T (Amersham Pharmacia). Native and soluble GST fusion proteins were expressed and purified as described (GrandPre, T., et al., Nature 403:439-444 (2000)). COS-7 binding assays were done as described (Fournier, A. E., et al., Nature 409:341-346 (2001)). Bound AP to COS-7 cells was measured using NIH image software. Fibroblast spreading and cDRG outgrowth assay were done as described (Fournier, A. E., et al., Nature 409:341-346 (2001)) with some modifications. Briefly, 50 μl of purified GST fusion protein or peptides diluted in PBS was pipetted into polylysine precoated 96 well plates (Becton Dickson Biocoat plates) and dried overnight at room temperature. For fibroblast spreading assay, subconfluent COS-7 cells were then plated for 1 hour in serum containing medium before fixation and staining with rho damine-phalloidin.

[3] = tested on: AP-B4C66; assay: Binding of AP-B4C66 to COS-7 cells expressing NgR mutants; set-up: key: ++: WT level; +: weaker than wild type; trace binding; −: no binding; details: AP-B4C66 0.5 nM; level of binding compared to wild type NgR
Procedure, shortened: (§1)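 COS-7 cells expressing Ala-substituted human NgR1 mutants incubated with AP-fused ligands at near-Kd levels (AP-Ng66 5 nM, AP-B4C66 0.5 nM, AP-Lingo-1 10 nM, AP-OMGP 10 nM). Bound AP stained and measured as % of wild-type NgR; graded ++/+/tr/−.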

[4] = target: T2, AP-Nogo-66 (UniProt Q9NQC3 1055-1120); assay: AP-ligand binding, COS-7
T2 construct: domain: Nogo-66; construct described elsewhere (Fournier 2001); also called AP-Ng66; Ng66; not shown: alkaline phosphatase (AP); construct described elsewhere
T2 sequence (looked up): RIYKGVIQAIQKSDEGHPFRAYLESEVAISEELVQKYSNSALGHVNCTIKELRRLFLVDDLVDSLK

[5] = target: T3, AP-fused Amino-Nogo fragment B4C (a.a. 950-1018) (human, UniProt Q9NQC3 950-1018); assay: AP-ligand binding, COS-7
T3 construct: also called AmNg B4C; AP-B4C; not shown: alkaline phosphatase (AP), vector pcAP6
T3 sequence: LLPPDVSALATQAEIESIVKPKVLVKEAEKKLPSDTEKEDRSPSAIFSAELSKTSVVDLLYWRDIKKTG

[6] = target: T4, AP fusion protein with the B4C fragment of Amino-Nogo-A fused directly to Nogo-66 (human, UniProt Q9NQC3 1055-1120); assay: AP-ligand binding, COS-7
T4 construct: domain: Nogo-66; also called AP-B4C66; AP-B4C-66; not shown: alkaline phosphatase (AP), vector pcAP6
T4 sequence: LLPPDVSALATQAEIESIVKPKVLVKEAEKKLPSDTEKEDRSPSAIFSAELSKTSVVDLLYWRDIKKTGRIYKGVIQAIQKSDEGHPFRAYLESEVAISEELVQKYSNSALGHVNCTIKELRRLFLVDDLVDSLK

[7] = tested on: AP-OMgp; assay: Binding of AP-OMgp to COS-7 cells expressing NgR mutants; set-up: key: ++: WT level; +: weaker than wild type; trace binding; −: no binding; details: AP-OMGP 10 nM; level of binding compared to wild type NgR
Procedure, shortened: as §1

[8] = tested on: AP-MAG; assay: Binding of AP-MAG to COS-7 cells expressing NgR mutants; set-up: key: ++: WT level; +: weaker than wild type; trace binding; −: no binding; details: AP-MAG 30 nM; level of binding compared to wild type NgR
[9] = target: T5, AP-B4C (Homo sapiens, UniProt Q9NQC3); assay: Binding of AP-B4C to COS-7 cells expressing NgR mutants; set-up: key: ++: WT level; +: weaker than wild type; trace binding; −: no binding; details: AP-B4C 10 nM; level of binding compared to wild type NgR
T5 construct: a.a; 950-1018 (AmNg B4C); made in house; host or cells: AP ligand: HEK293T conditioned medium; NgR mutants: COS-7
T5 sequence (Q9NQC3 950-1018): T3 sequence

[10] = target: T6, AP-Lingo-1 (Homo sapiens, UniProt Q96FE5); assay: Binding of AP-Lingo-1 to COS-7 cells expressing NgR mutants; set-up: key: ++: WT level; +: weaker than wild type; trace binding; −: no binding; details: AP-Lingo-1 10 nM; level of binding compared to wild type NgR
T6 construct: made in house; NgR mutants: COS-7
T6 sequence (Q96FE5 40-538 limits assumed): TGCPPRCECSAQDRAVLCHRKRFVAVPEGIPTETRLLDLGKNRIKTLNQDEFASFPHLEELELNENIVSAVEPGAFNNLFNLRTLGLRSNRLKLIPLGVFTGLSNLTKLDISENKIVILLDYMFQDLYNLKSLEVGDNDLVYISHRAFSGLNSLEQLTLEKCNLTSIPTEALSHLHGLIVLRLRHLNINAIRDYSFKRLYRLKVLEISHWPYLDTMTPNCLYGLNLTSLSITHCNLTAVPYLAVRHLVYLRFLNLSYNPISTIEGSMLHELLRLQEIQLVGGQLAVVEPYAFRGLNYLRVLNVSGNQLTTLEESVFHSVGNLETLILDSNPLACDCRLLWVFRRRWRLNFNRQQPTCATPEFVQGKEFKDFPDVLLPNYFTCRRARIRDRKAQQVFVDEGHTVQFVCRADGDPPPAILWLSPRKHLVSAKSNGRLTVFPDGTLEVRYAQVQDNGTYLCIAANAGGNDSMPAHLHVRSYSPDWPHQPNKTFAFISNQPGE
Procedure, shortened: as §1

[11] = target: T7, AP-Nogo66 (Homo sapiens, UniProt Q9NQC3); assay: Binding of AP-Nogo66 to COS-7 cells expressing NgR mutants; set-up: key: ++: WT level; +: weaker than wild type; trace binding; −: no binding; details: AP-Ng66 5 nM; level of binding compared to wild type NgR
T7 construct: made in house; NgR mutants: COS-7
T7 sequence (Q9NQC3 1055-1120 limits assumed): T2 sequence (looked up)
Procedure, shortened: as §1

[12] = tested on: NgR ligands; assay: Binding of alanine substituted NgR mutants to NgR ligands, summary categories; details: AP-Nogo66, AP-B4C, AP-B4C66, AP-Lingo-1, AP-OMgp and AP-MAG; compared to wild type NgR
Procedure, shortened: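 Human NgR1 template; 74 mutants with 1-8 solvent-exposed charged surface residues (within 5 Å) Ala-substituted, plus glycosylation-site mutants and D259N polymorphism. Mutants tested for binding of AP-tagged Nogo66, Amino-Nogo-B4C, B4C66, MAG, OMgp and Lingo-1; each classed as losing all, keeping all, or selective ligand binding.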

binding to DRG axons/neurons [1]: binding to DRG axons
Molecule: IFSAELSKTSVVDLLYWRDIKKTG (not fully specified) [a.a. 995-1018 (Amino-Nogo-A-24), AP fusion protein of Nogo-A aa 995-1018]

NgR Kd (nM) [2]: No Binding | binding to DRG axons/neurons [1]: binds to DRG axons
B1: a.a. 181-864 (AmNg A): AP fusion protein of human Amino-Nogo fragment A, aa 181-864 of Nogo-A (protein)
chain: SSGSVDETLFALPAASEPVIRSSAENMDLKEQPGNTISAGQEDFPSVLLETAASLPSLSPLSAASFKEHEYLGNLSTVLPTEGTLQENVSEASKEVSEKAKTLLIDRDLTEFSELEYSEMGSSFSVSPKAESAVIVANPREEIIVKNKDEEEKLVSNNILHNQQELPTALTKLVKEDEVVSSEKAKDSFNEKRVAVEAPMREEYADFKPFERVWEVKDSKEDSDMLAAGGKIESNLESKVDKKCFADSLEQTNHEKDSESSNDDTSFPSTPEGIKDRSGAYITCAPFNPAATESIATNIFPLLGDPTSENKTDEKKIEEKKAQIVTEKNTSTKTSNPFLVAAQDSETDYVTTDNLTKVTEEVVANMPEGLTPDLVQEACESELNEVTGTKIAYETKMDLVQTSEVMQESLYPAAQLCPSFEESEATPSPVLPDIVMEAPLNSAVPSAGASVIQPSSSPLEASSVNYESIKHEPENPPPYEEAMSVSLKKVSGIKEEIKEPENINAALQETEAPYISIACDLIKETKLSAEPAPDFSDYSEMAKVEQPVPDHSELVEDSSPDSEPVDLFSDDSIPDVPQKQDETVMLVKESLTETSFESMIEYENKEKLSALPPEGGKPYLESFKLSLDNTKDTLLPDEVSTLSKKEKIPLQMEELSTAVYSNDDLFISKEAQIRETETFSDSSP
modifications: left off: large carriers
notes: AP fusion protein of human Amino-Nogo fragment A, aa 181-864 of Nogo-A

binding result [4]: no binding | binding result [5]: no binding | binding result [6]: no binding | B4C [9]: − | Lingo-1 [10]: ++ | Ng66 [11]: − | ligand binding category of NgR mutant (Table II) [12]: Differential binding
B2: human NgR1 alanine mutant 211, 213, 237, 256, 259, 284 (receptor)
chain: CPGACVCYNEPKVTTSCPQQGLQAVPVGIPAASQRIFLHGNRISHVPAASFRACRNLTILWLHSNVLARIDAAAFTGLALLEQLDLSDNAQLRSVDPATFHGLGRLHTLHLDRCGLQELGPGLFRGLAALQYLYLQDNALQALPDDTFRDLGNLTHLFLHGNRISSVPERAFRGLHSLDRLLLHANAVAHVHPHAFRDLGRLMTLYLFANALSALPTEALAPLRALQYLALNANPWVCDCRARPLWAWLQKFRGSSSAVPCSLPQRLAGRDLKRLAANDLQGCAVATGPYHPIWTGRATDEEPLGLPKCCQPDAADKASVLEPGRPASAGNALKGRVPPGDSPPGNGSGPRHINDSPFGTLPGSAEPPLTAVRPEGSEPPGFPTSGPRRRPGCSRKNRTRSHCRLGQAGSGGGGTGDSEGSGALPSLTCSLTPLGLALVLWTVLGPC
B4C-66 [3]: − | OMgp [7]: − | MAG [8]: −

binding result [4]: no binding | binding result [5]: no binding | binding result [6]: no binding | B4C [9]: − | Lingo-1 [10]: ++ | Ng66 [11]: − | ligand binding category of NgR mutant (Table II) [12]: Differential binding
B3: human NgR1 alanine mutant 189, 191, 211, 213, 237, 256, 259, 284 (receptor)
chain: B2 chain with R163A, S165A
B4C-66 [3]: − | OMgp [7]: −

Reference: US20090111753A1, “Nogo-A Polypeptide Fragments, Variant Nogo Receptor-1 Polypeptides, and Uses Thereof” (Yale University, priority 2004, published 2009)
